Source: article PMC8464517

Target: T1, GLUT1 (Homo sapiens), P11166
T1 chain: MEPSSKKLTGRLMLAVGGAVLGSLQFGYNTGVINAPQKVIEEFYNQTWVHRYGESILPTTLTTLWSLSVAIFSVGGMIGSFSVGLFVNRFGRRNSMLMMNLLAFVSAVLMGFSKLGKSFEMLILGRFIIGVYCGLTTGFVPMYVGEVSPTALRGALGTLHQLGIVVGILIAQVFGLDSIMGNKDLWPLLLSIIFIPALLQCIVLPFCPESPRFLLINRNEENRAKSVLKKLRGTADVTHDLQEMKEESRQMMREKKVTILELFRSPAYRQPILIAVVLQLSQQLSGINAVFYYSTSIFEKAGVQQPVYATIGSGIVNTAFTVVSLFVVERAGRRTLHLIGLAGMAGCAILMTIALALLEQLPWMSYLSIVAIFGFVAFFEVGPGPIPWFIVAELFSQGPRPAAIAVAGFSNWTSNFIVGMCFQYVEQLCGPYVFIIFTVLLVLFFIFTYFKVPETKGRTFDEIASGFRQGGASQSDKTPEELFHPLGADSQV
Assay: ITC
Conditions: PIP2/MSP1E3 nanodisc; remark: other sources report otherwise

B1: TXNIP, Q9H3M7 (protein)
chain: MVMFKKIKSFEVVFNDPEKVYGSGEKVAGRVIVEVCEVTRVKAVRILACGVAKVLWMQGSQQCKQTSEYLRYEDTLLLEDQPTGENEMVIMRPGNKYEYKFGFELPQGPLGTSFKGKYGCVDYWVKAFLDRPSQPTQETKKNFEVVDLVDVNTPDLMAPVSAKKEKKVSCMFIPDGRVSVSARIDRKGFCEGDEISIHADFENTCSRIVVPKAAIVARHTYLANGQTKVLTQKLSSVRGNHIISGTCASWRGKSLRVQKIRPSILGCNILRVEYSLLIYVSVPGSKKVILDLPLVIGSRSGLSSRTSSMASRTSSEMSWVDLNIPDTPEAPPCYMDVIPEDHRLESPTTPLLDDMDGSQDSPIFMYAPEFKFMPPPTYTEVDPCILNNNVQ
Work on B1 yielded a Kd of 3.8 µM.
